Experimental data published in US11312760 (NEWSOARA BIOPHARMA, dated 2022).

What follows are binders tested against authentic SARS-CoV-2 (live virus) (assay: cell-based or functional assay).

Binder	EC50 of neutralization of live virus in Vero-E6 cells [µg/mL]
Antibody 15A7 (recombinantly expressed in IgG1 form) (antibody, V domains shown) VH: QVQLVQSGAEVKKPGASVKVSCKASGYTFTSYDINWVRQASGQGLEWMGWMNPNSANPGYAQKFQGRVTMTRNTSISTAFMELSSLRSDDTAVYYCARARVTIHYDILTGYYSNAFDIWGQGTMVAVSS VL: DIQMTQSPSSLSASVGDRVTITCRASQTISSYLNWYQQKPGKAPKLLIYAASSLQSGVPSRFSGSGSGADFTLTISSLQPEDFATYYCQQSYTTFMYTFGQGTMLEIK	0.61
Antibody 37G2 (recombinantly expressed in IgG1 form) (antibody, V domains shown) VH: QVQLVQSGAEVKKPGSSVKVSCKASGGTFSSYAITWVRQAPGQGLEWMGGIIPIFGTANFAQKFQGRVTITADESTSTAYMELSSLRSEDTAVYYCAHLGGFADPFDYWGQGTLVTVSS VL: EIVLTQSPATLSLSPGERATLSCRASQSVSNYLAWYQQKAGQAPRVLIYDAFNRATGIPARFSGSGSGTDFTLTISSLEPEDFAVYYCQQRSNWPPRITFGQGTRLEIK	1.37
Antibody 31C2 (recombinantly expressed in IgG1 form) (antibody, V domains shown) VH: QVQLVQSGAEVKKPGSSVKVSCKASGGTFSSYAISWVRQAPGQGLEWMGGIIPIFGTTNYAQKFQGRVTITADESTSTAYMELNSLRSEDTAVYYCAGRSAYGDKGYYFDYWGQGTLVTVSS VL: EIVLTQSPATLSLSPGERATLSCRASQSVSNFLAWYQQKPGQAPRLLIYDASNRATGIPARFSGSGSGTDFTLTISSLQPEDFAVYYCQQRSNWPPQETFGQGTKVEIK	0.57
